Laboratory results taken from patent US20030109000A1.

Target: cell-surface PDGF receptors (on rat stellate cells) (rat)
Assay: cell-based or functional assay

Substance: PDGF-D GFD dimer (from UniProt Q5RA73 250-370) (ligand)
- luciferase reporter (SRE/STAT) RLU in rat stellate cell lysate at 0.3 ng/ml: 160 RLU
- luciferase reporter (SRE/STAT) RLU in rat stellate cell lysate at 1 ng/ml: 278 RLU
- luciferase reporter (SRE/STAT) RLU in rat stellate cell lysate at 3 ng/ml: 400 RLU
- luciferase reporter (SRE/STAT) RLU in rat stellate cell lysate at 10 ng/ml: 542 RLU
- luciferase reporter (SRE/STAT) RLU in rat stellate cell lysate at 30 ng/ml: 672 RLU
- luciferase reporter (SRE/STAT) RLU in rat stellate cell lysate at 100 ng/ml: 826 RLU
- luciferase reporter (SRE/STAT) RLU in rat stellate cell lysate at 300 ng/ml: 883 RLU
